Measured values reported in US9637543B2, “HER3 antibodies and uses thereof” (THE UAB RESEARCH FOUNDATION, priority 2011, dated 2017).
“Also recorded” adds a separate entry of the source. Blank lines part the entries; values can stand above or below the molecule they belong to.

Columns and labels:
[1] = target: T1, HER3 (Homo sapiens, UniProt P21860); assay: HER3 autophosphorylation in pancreatic cancer cell lines; type: cell-based; set-up: endogenous in cells; host or cells: N87, BT474, ZR75-30, Panc 2.03, A549 and a panel of human cancer cell lines; conditions: single agents
T1 sequence (P21860 20-1342): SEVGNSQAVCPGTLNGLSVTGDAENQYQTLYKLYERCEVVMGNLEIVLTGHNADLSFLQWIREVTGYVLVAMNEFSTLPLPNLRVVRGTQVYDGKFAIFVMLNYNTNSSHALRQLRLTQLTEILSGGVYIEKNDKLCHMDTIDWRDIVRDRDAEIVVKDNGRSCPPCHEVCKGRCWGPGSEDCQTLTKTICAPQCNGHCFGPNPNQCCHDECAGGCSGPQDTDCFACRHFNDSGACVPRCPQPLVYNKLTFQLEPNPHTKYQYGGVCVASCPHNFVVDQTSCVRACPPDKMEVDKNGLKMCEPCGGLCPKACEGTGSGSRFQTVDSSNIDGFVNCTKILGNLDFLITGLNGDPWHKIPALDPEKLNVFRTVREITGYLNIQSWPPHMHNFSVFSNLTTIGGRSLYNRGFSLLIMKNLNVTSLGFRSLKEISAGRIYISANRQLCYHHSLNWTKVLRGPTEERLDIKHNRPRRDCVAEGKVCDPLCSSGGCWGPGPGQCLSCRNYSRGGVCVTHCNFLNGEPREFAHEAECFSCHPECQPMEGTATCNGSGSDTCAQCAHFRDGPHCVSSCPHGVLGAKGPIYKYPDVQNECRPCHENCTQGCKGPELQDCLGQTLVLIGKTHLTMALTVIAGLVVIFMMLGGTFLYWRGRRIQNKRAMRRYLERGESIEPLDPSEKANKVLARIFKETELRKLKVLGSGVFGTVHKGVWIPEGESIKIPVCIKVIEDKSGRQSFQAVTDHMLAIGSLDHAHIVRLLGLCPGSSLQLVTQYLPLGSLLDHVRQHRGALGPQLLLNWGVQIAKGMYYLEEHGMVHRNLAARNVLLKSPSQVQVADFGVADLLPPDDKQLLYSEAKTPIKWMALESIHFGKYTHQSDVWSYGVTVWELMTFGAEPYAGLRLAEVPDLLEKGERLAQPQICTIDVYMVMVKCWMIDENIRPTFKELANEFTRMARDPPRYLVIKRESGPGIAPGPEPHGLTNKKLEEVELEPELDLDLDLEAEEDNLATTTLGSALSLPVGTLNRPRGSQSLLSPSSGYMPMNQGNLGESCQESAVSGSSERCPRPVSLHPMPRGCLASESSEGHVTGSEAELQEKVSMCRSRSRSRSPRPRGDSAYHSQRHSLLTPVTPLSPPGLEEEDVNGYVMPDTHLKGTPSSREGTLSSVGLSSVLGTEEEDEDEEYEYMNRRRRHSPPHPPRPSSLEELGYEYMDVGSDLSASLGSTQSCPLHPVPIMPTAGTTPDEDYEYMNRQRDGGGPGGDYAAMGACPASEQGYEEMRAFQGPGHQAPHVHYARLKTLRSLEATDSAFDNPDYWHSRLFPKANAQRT

[2] = target: T1, HER3; assay: NRG1-induced phosphorylation of HER3 in pancreatic cancer cell lines; type: cell-based; set-up: endogenous in cells; host or cells: N87, BT474, ZR75-30, Panc 2.03, A549 and a panel of human cancer cell lines
[3] = target: T2, HER2 (Homo sapiens, UniProt P04626); assay: HER2 autophosphorylation in pancreatic cancer cell lines; type: cell-based; set-up: endogenous in cells; conditions: single agents
[4] = tested on: N87 human gastric cancer xenograft; assay: N87 human gastric cancer xenograft model; type: in vivo; conditions: lapatinib alone versus antibodies alone
[5] = target: T2, HER2; assay: NRG1-induced phosphorylation of HER2 in pancreatic cancer cell lines; type: cell-based; set-up: endogenous in cells
[6] = target: T2, HER2; assay: HER2 tyrosine phosphorylation ELISA, antibodies with or without lapatinib; type: cell-based; set-up: endogenous in cells; host or cells: N87 gastric cancer cells; ZR75-30 breast cancer cells; conditions: 24 hours; for tyrosine phosphorylation level of HER2: N87 cells; for tyrosine phosphorylation levels of HER2: ZR75-30 cells
[7] = target: T3, HER3-transfected SP 2/0 cells (Homo sapiens, UniProt P21860); assay: Flow cytometry binding specificity on transfected SP 2/0 cells; conditions: EGFR, HER2 or HER3 transfected SP2/0 cells, 1 μg/ml purified antibody
T3 construct: expressed in transfected cells; host or cells: SP 2/0 cells
T3 sequence (P21860 20-1342): as above
Experimental: (§1) The average OD values of triplicates are presented. The values for egFR are superimposed on the values for HER2. […] EGFR, HER2 or HER3-transfected SP 2/0 cells were stained with 1 μg/ml of purified antibody, followed by PE-goat anti-mouse IgG.
(§2) An ELISA plate was coated with 1 μg/ml of recombinant soluble EGFR, HER2, or the extracellular domain of HER3.

[8] = target: T1, HER3; assay: Functional screen for inhibition of ligand-induced HER3 activation; type: cell-based; set-up: endogenous in cells; host or cells: N87, BT474, ZR75-30, Panc 2.03, A549 and a panel of human cancer cell lines; conditions: human cancer cell lines
Excerpt: Another HER3 antibody was generated by immunizing mice with human HER3 expressing SP 2/0 cells. […] Thus, the 3D4 antibody is a ligand-dependent antibody.

[9] = tested on: A549 human lung cancer xenograft; assay: A549 human lung cancer xenograft model; type: in vivo
[10] = target: T4, HER3 (extracellular domain) (Homo sapiens, UniProt P21860); assay: ELISA binding specificity on recombinant soluble EGFR, HER2, HER3; conditions: plate coated with 1 μg/ml recombinant soluble EGFR, HER2 or HER3 extracellular domain
T4 construct: recombinant soluble EGFR, HER2, or the extracellular domain of HER3
T4 sequence (P21860 20-643 limits assumed): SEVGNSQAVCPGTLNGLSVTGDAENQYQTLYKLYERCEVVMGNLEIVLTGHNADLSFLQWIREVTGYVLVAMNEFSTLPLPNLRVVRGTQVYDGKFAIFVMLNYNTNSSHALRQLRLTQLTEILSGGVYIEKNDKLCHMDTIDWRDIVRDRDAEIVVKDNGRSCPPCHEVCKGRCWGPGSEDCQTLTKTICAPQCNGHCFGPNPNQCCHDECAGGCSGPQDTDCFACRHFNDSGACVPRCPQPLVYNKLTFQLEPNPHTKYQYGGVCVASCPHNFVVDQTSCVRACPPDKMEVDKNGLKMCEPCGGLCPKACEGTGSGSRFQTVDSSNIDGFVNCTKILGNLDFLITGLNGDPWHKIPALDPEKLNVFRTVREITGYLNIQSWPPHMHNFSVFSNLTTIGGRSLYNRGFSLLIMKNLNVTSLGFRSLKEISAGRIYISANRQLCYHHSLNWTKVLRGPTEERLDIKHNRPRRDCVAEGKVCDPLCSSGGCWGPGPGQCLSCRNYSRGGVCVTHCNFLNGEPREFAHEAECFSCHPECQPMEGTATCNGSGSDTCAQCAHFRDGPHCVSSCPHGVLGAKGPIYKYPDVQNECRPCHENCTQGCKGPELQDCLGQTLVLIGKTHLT
Experimental: as §1, §2

[11] = target: T5, recombinant soluble HER3 (Homo sapiens, UniProt P21860); assay: Sandwich ELISA for epitopes (1A5 capture, HRP-3D4 detection); type: binding; conditions: plate coated with 2 μg/ml 1A5, 200 ng/ml HRP-conjugated 3D4
T5 construct: coated with 1 μg/ml of recombinant soluble HER3
T5 sequence (P21860 20-643 limits assumed): as above
Experimental: An ELISA plate was coated with 2 μg/ml of purified 1A5 and then incubated with indicated concentrations of recombinant soluble HER3 in the presence of 200 ng/ml HRP-conjugated 3D4. The binding of 3D4 to HER3 was detected by chemiluminescence substrate. The average counts per second of triplicates are presented.
An ELISA plate was coated with 2 μg/ml of purified 1A5 and then incubated with increasing concentrations of HER3 in the presence of 200 ng/ml HRP-conjugated 3D4. The binding of 3D4 antibody to HER3 was detected by chemiluminescence.

[12] = target: T3, HER3-transfected SP 2/0 cells; assay: Flow cytometry for blocking of NRG1 binding to HER3; conditions: 100 ng/ml biotin-conjugated NRG1, increasing antibody concentrations
Excerpt: (§3) The binding of NRG1 to HER3 (vertical axis) was detected by HRP-streptavidin. […] NRG1 binding was detected by PE-streptavidin. The mean fluorescent intensities (MFI) of NRG1 bound are presented.
(§4) The binding of NRG1 to HER3 was detected by HRP-streptavidin. […] Thus, the 1A5 antibody is herein referred to as a ligand-independent antibody. […] Thus, the 3D4 antibody is herein referred to as a ligand-dependent antibody. […] NRG1 binding was detected by PE-streptavidin.

[13] = target: T5, recombinant soluble HER3; assay: ELISA for blocking of NRG1 binding to HER3; conditions: 100 ng/ml biotin-conjugated NRG1, increasing antibody concentrations
Excerpt: as §3, §4

[14] = target: T1, HER3; assay: HER3 tyrosine phosphorylation ELISA, antibodies with or without tyrosine kinase inhibitor; type: cell-based; set-up: endogenous in cells; host or cells: N87; tyrosine phosphorylation of HER3: dose or concentration left out as unconfirmed; conditions: 24 hours; for tyrosine phosphorylation levels of HER3: 20 μg/ml antibody
[15] = target: EGFR (Homo sapiens, UniProt P00533); assay: EGFR tyrosine phosphorylation ELISA, antibodies with or without tyrosine kinase inhibitor; conditions: 24 hours

Molecule: C#Cc1cccc(Nc2ncnc3cc(OCCOC)c(OCCOC)cc23)c1 [erlotinib, reference compound]
autophosphorylation of HER3 [1]: but not erlotinib and lapatinib inhibited autophosphorylation of HER3

tyrosine phosphorylation level of HER2 ([6]; 100 nM lapatinib with the antibodies): reduced | tyrosine phosphorylation levels of HER2 ([6]; 100 nM lapatinib with the antibodies alone or in combination): reduced tyrosine phosphorylation levels
Molecule: CS(=O)(=O)CCNCc1ccc(-c2ccc3ncnc(Nc4ccc(OCc5cccc(F)c5)c(Cl)c4)c3c2)o1 [lapatinib, reference compound]
NRG1-induced phosphorylation of HER3 [2]: only partially inhibited NRG1-induced phosphorylation of HER3; also recorded: partially reduced NRG-1-induced phosphorylation | autophosphorylation of HER2 [3]: partially inhibited autophosphorylation of HER2 | tumor volume [4]: reduced tumor volume more than the administration of the combination of 1A5 and 3D4 antibodies | NRG1-induced phosphorylation of HER2 [5]: inhibited NRG1-induced phosphorylation of HER2; also recorded: inhibited NRG-1-induced phosphorylation of HER2 | autophosphorylation of HER3 [1]: but not erlotinib and lapatinib inhibited autophosphorylation of HER3

binding specificity by flow cytometry [7]: specifically bind HER3 | tyrosine phosphorylation levels of HER3, effect of adding Erlotinib ([14]; A549 cells, 20 μg/ml antibody with 100 nM Erlotinib): enhanced | tyrosine phosphorylation of HER3, effect of adding lapatinib ([14]; N87 cells, with 100 nM lapatinib): enhanced | tyrosine phosphorylation levels of HER3, effect of adding lapatinib ([14]; ZR75-30 cells, 20 μg/ml antibody with 100 nM lapatinib): enhanced
B1: 3D4: ligand-dependent HER3 antibody; light chain variable region SEQ ID NO:9, heavy chain variable region SEQ ID NO:10 (antibody, V domains shown)
VH: MGWSRIFLFLLSIIAGVHCQVQLQQSGPELVKPGASVRISCKASGYTFTNYFLHWMKQRPGQGLEWIGWIYPGNVNTKYSEKFKGKATLTADKSSSTAYMQLSSLTSEDSAVYFCARSTYYSMDYWGQGTSVTVSS
VL: METDTLLLWVLLLWVPGSTGDIVLTQSPASLAVSLGQRATISCRASESVDSYGNSFMNWYQQKPGQPPKVLIYRASNLESGIPARFSGSGSRTDFTLTITPVEADDVATYYCQQSYEDPPTFGGGTKLEIK
inhibition of ligand-induced HER3 activation [8]: ability to inhibit ligand-induced HER3 activation in human cancer cells lines | tumor volume ([9]; antibodies without Erbitux): reduced tumor volume | tumor volume ([9]; in combination with Erbitux): reduced tumor volume more than administration of Erbitux alone | NRG1-induced phosphorylation of HER3 [2]: inhibited NRG1-induced phosphorylation of HER3; also recorded: inhibited NRG-1 induced phosphorylation of HER3 | binding specificity by ELISA [10]: specifically bind HER3; also recorded: specific binding | epitopes of HER3 bound [11]: bind different epitopes of HER3; also recorded: recognize different epitopes on HER3 | blocking of NRG1 binding to HER3 (flow cytometry) [12]: blocked NRG1 binding to HER3; also recorded: blocks ligand binding to HER2 | blocking of NRG1 binding to HER3 (ELISA) [13]: inhibited binding of NRG1 to HER3; also recorded: blocks ligand binding to HER3 | NRG1-induced phosphorylation of HER2 [5]: inhibited NRG1-induced phosphorylation of HER2; also recorded: inhibited NRG-1-induced phosphorylation of HER2 | tyrosine phosphorylation level of HER2 ([6]; without lapatinib): did not affect the level of tyrosine phosphorylation for EGFR or HER2 | tyrosine phosphorylation levels of HER2 ([6]; 20 μg/ml antibody, without lapatinib): did not affect tyrosine phosphorylation levels of HER2 | tyrosine phosphorylation levels of HER3 ([14]; A549 cells, without Erlotinib): reduced the tyrosine-phosphorylation levels of HER3 | tyrosine phosphorylation of HER3 ([14]; N87 cells, without lapatinib): reduced the tyrosine phosphorylation of HER3 | tyrosine phosphorylation levels of HER3 ([14]; ZR75-30 cells, without lapatinib): reduced the tyrosine phosphorylation levels of HER3 | tyrosine phosphorylation levels of EGFR ([15]; A549 cells, 20 μg/ml antibody, without Erlotinib): did not affect tyrosine phosphorylation levels of EGFR | tyrosine phosphorylation level of EGFR ([15]; N87 cells, 20 mg/ml antibody, without lapatinib): did not affect the level of tyrosine phosphorylation for EGFR or HER2
